This sample holds only a part of the variants without activity.
B1: TPR 5TU (parent)
chain: GGAUCUUCUCGAUCUAACAAAAAAGACAAAUCUGCCACAAAGCUUGAGAGCAUCUUCGGAUGCAGAGGCGGCAGCCUUCGGUGGCGCGAUAGCGCCAACGUUCUCAACUAUGACACGCAAAACGCGUGCUCCGUUGAAUGGAGUUUAUCAUG

Variants of: B1
Test: polymerase ribozyme fitness, log enrichment relative to wild type (log ratio); higher = more active; in vitro selection for triplet polymerase activity
Procedure, shortened: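 The heterodimeric triplet polymerase ribozyme's subunits were each mutagenized into PCR-built libraries and transcribed. Every library was selected once, in triplicate, by annealing with a biotinylated primer, the partner subunit and triplets, incubating frozen at −7 °C, gel-excising extended constructs, capturing on streptavidin beads and running RT-PCR. Input and output libraries were Illumina-sequenced, with genotypes kept only at ≥10 input reads and ≥1 read per output. Fitness, from inverse-variance-weighted replicate averages, is the base-2 logarithm of genotype enrichment over wild-type enrichment.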

| Variant | polymerase ribozyme fitness (log ratio) |
| --- | --- |
| C36A G48U C54G C57A C72A A91C | ≤ -4.2 |
| A37G C95A U127G | -4.15 |
| C36U U44A A122C | -4.15 |
| A37G A60C | -3.15 |
| A37C C93U G136C G141U | -3.34 |
| A37C A49C C57G C75U A137U G141C | ≤ -4.2 |
| A37G U45A C76G U82G C93G A113C G136U | ≤ -4.2 |
| A37G U53A U134G | -3.7 |
| C36U C87G | ≤ -4.2 |
| C36A A49C G71U G92A A107G U145C | ≤ -4.2 |
| A37G C95U | -2.43 |
| C35U G141A | 0.194 |
| C36A G50C U53A U56A C93U A115U | ≤ -4.2 |
| A37U U45A G46C C85U C105U U144A | ≤ -4.2 |
| C35U G92U C116U | 0.616 |
| C35U U55A G84U A147C | -2.79 |
| A37C C38U U145C | 0.0837 |
| C36G A47G U55C G84U C149A | ≤ -4.2 |
| C35U G92A C96A | ≤ -4.2 |
| A37C C38G C85U | -1.28 |
| C36U G94A C125A | -1.63 |
| A37C U55A C96U A113U A137U | -4.18 |
| A37G A47C G100U G143A | ≤ -4.2 |
| C36U C85U G133A U135C | -4.18 |

| Variant | polymerase ribozyme fitness (log ratio) |
| --- | --- |
| A37U C51U G92U | -2.25 |
| A37G A40U C54G A60G | -2.66 |
| A37G A73U G94A A97C G124A | ≤ -4.2 |
| A37C A60C G67C C76G | -3.82 |
| C36A U56A C57A A122G U127C | ≤ -4.2 |
| C35U U61A A66C C69U | ≤ -4.2 |
| A37G U77A C87A C99U G140C A147U | ≤ -4.2 |
| C35U G124U | -1.25 |
| A37U A52C A73U G86A C96A C108G G133A G141A | ≤ -4.2 |
| A37C C105U | -0.652 |
| A37C A47C | -1.24 |
| A37G G58A G92C G140U | ≤ -4.2 |
| A37C C57A | 0.0979 |
| C36A C93U G100U | ≤ -4.2 |
| C36A U78C G80U C149U | ≤ -4.2 |
| A37G U61C G94U U145C | ≤ -4.2 |
| C36A U56A | -3.62 |
| A37G G50C | -3.93 |
| A37U U55G A60G C85G A107C C131U | ≤ -4.2 |
| C36U A39U | -2.71 |
| A37U G58C A97G C132U | -2.67 |
| A37U A73G | -1.1 |
| A37G A91C A138C G140U | ≤ -4.2 |
| A37G G42C G88U A115G | ≤ -4.2 |

| Variant | polymerase ribozyme fitness (log ratio) |
| --- | --- |
| C36A A47C G59U | ≤ -4.2 |
| C36A C75U C95A C129G | ≤ -4.2 |
| A37G C93A U145G | -3.99 |
| A37C A49C C54A U78G C93U G124A | ≤ -4.2 |
| A37C A97G U151A | ≤ -4.2 |
| A37C A115U | -1.16 |
| C36G C54U G92A A110G G143A | ≤ -4.2 |
| A37C G80C G92A C129A | ≤ -4.2 |
| A37U G58U C96U C118G U146C | -3.08 |
| A37C G83U | -0.441 |
| C36A A64U A107U U139A G140C | ≤ -4.2 |
| A37U A49C C63G C87G G124U | ≤ -4.2 |
| C35U G136A G143U | -3.68 |
| A37C C116G | -0.143 |
| C36U G71A G94A | ≤ -4.2 |
| A37U C38U C76G C93U C96A C118U G143U | ≤ -4.2 |
| C36G U145A | -3.88 |
| C35U G117U | 0.973 |
| C36U C54A G65C G67U G68U C95G A110C A113U C116U G143C C149A | ≤ -4.2 |
| C36U C72U | -0.573 |
| A37U C103A | -3.85 |
| C36U G46U G86U C105A G124U | -3.12 |
| A37U U56A C99U G143U | -3.88 |
| C36G G84A | -4.19 |

| Variant | polymerase ribozyme fitness (log ratio) |
| --- | --- |
| C36A U55A C95G A97U U135A | ≤ -4.2 |
| C36U G59C C131U | -0.515 |
| C36U C76U C85G | -2.42 |
| A37U C38G A97C | -1.69 |
| A37C A40C A66U C75G G94U A120G C131G G141A | ≤ -4.2 |
| A37C C54U A60C U61G C96U C99A G112A A115G | ≤ -4.2 |
| A37G U61A G141C U148C | ≤ -4.2 |
| A37C C95A A138C G141C | ≤ -4.2 |
| A37G A60G G83C C96U G141U | -2.58 |
| C36U C87U G126A | -2.05 |
| C35U G136A | 0.0897 |
| A37G A41C G71A U90A C96U | ≤ -4.2 |
| A37U A47C C85U C95U A113C U148A G152U | ≤ -4.2 |
| A37G U45A C96U | ≤ -4.2 |
| A37C U56A U90A C103G A121U C123U G141C | ≤ -4.2 |
| C36U G59A U82G A97U | -1.3 |
| C36U C54U C87U C96G U146G G152A | ≤ -4.2 |
| A37U C54A C57A C93U | -3.28 |
| A37C G94U A98U | -1.16 |
| C36A G62C C63U | ≤ -4.2 |
| A37U A52G G83A G84A A115U | ≤ -4.2 |
| A37G C38A C43U C54G G80U U104G | ≤ -4.2 |
| A37C A64C G71A C85A G126C | ≤ -4.2 |
| C36U C96G | -2.56 |

| Variant | polymerase ribozyme fitness (log ratio) |
| --- | --- |
| A37U G92C G133C | -3.52 |
| C36A C79U | ≤ -4.2 |
| A37U A66G C149U G152C | ≤ -4.2 |
| A37U U55A G58C A142U | -2.45 |
| C35U U55A C96U | -0.218 |
| C36U G50C C85A A110C | ≤ -4.2 |
| C36A C54G C57A G86A U139G | ≤ -4.2 |
| C36U C79A C87U A115C A122C C131G | ≤ -4.2 |
| A37G U78A C93G C116U | ≤ -4.2 |
| A37C C114U | -3.07 |
| C36G U55G A73U C108U C118A G133U | -4.17 |
| C36A A73U G92U U134G G143U | -4.13 |
| A37C C93U | -1.64 |
| A37C C93A | -2.8 |
| C36U C51G U55A G67A C93U | ≤ -4.2 |
| A37C A40C G48C G74A G94A G126C G133A G136A A150U | ≤ -4.2 |
| C36A C57U A66C C99A | ≤ -4.2 |
| A37G G74U C87G A115C | ≤ -4.2 |
| C36A U78A | ≤ -4.2 |
| C36A U56G C85U C93U G94C | ≤ -4.2 |
| C35U G88A | -4.1 |
| C35U U127G | -4.01 |
| C36A G92A U101A | ≤ -4.2 |
| C36U A73U A138U G140C | ≤ -4.2 |

| Variant | polymerase ribozyme fitness (log ratio) |
| --- | --- |
| C36A U56G C85A | ≤ -4.2 |
| C36A U82A U90G A98C | ≤ -4.2 |
| C35U G140C | -4.13 |
| C36A U55A A64U C96A C118G | ≤ -4.2 |
| C36U G94A | -3.52 |
| C36A C57G U77C A119G | ≤ -4.2 |
| C35U G92U | -0.627 |
| C36U U55A A97G A121G U134G | -3.22 |
| C36U A52G G70U G84A | -2.84 |
| A37G G94A | -1.49 |
| C36A A60C G71C C79A G84A A91G C93G | ≤ -4.2 |
| A37C C43U G84A C114A U130G U151G | ≤ -4.2 |
| A37G A66U C96A C103U | ≤ -4.2 |
| A37C A60C C85U G126C U146C | -2.23 |
| C36G C95U | -3.45 |
| C36A A121U | -3.23 |
| A37G C54U U55A G86A A89U U109G A138G | ≤ -4.2 |
| C36A A98U A107U C131A U146G | ≤ -4.2 |
| A37C C95A A97C A121U | -2.71 |
| A37U A98G | -1.34 |
| C36A U45C C95U C114U A119U | ≤ -4.2 |
| C36G U44G G71U C96A C108G G140C | ≤ -4.2 |
| A37G A47U G81C C95G U102G A120U U134C U135G A137C | ≤ -4.2 |
| C36U C93G C103G C129A G141C | ≤ -4.2 |

| Variant | polymerase ribozyme fitness (log ratio) |
| --- | --- |
| C36G C99G C132U U146C | -4.06 |
| A37C U144A | -0.958 |
| A37C C96U G100C U102C C118G C131G | ≤ -4.2 |
| A37G A39U G58C G62A C63U A64U U77A C87G C103G A150U | ≤ -4.2 |
| C36U G50U C54U C99U | -4.14 |
| A37U G58A G59C A121U | -0.167 |
| C36U G141U A142C | ≤ -4.2 |
| A37C G62U G86U G100C A107G | ≤ -4.2 |
| A37C G92C G124C | -2.65 |
| C36A G46A C96U U148A | ≤ -4.2 |
| C36A U45A C87G A91G | ≤ -4.2 |
| A37C G86A C103A A120U | ≤ -4.2 |
| A37C A49G C87U A115C | -3.32 |
| A37G C54A G141A | -2.78 |
| A37C G86A | -1.34 |
| A37U C75U G83A A98U | -2.88 |
| A37U G84A U102C C123G | -4.19 |
| C36U A52G C69U C85U U109G C118A | -3.73 |
| C36U G58U G94A C105U C125U U135C | -3.89 |
| C36U U77G A98U U134A | ≤ -4.2 |
| A37G C93U | -3.38 |
| C36U C54A C95G C108U U109C C116U | ≤ -4.2 |
| C36U G58A C87A C131U G143A | ≤ -4.2 |
